Earlier results in article PMC2964873.

Molecular target: plectin-1 95-117 (Homo sapiens) (UniProt Q15149)
UniProt Q15149, sequence (Q15149 95-117): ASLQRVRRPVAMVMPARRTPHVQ

- Kd: 29 nM
Substance: Siah (from UniProt Q8IUQ4)
